Series [1] has as its target FIR1+2 F254L (human, UniProt Q9UHX1-2 101-299, R106G;C112S;C238A;F254L). The series can be described thus: fluorescence anisotropy.
Series [2] deals with FIR1+2 F157L (human, UniProt Q9UHX1-2 101-299, R106G;C112S;C238A;F157L). The series can be described thus: fluorescence anisotropy.
Series [3] addresses FIR1+2 Y115L (human, UniProt Q9UHX1-2 101-299, R106G;C112S;C238A;Y115L). Kind of series: fluorescence anisotropy. On the technique in general: Polarisation of emitted light reports the rotation of a fluorescent probe.
Series [4] addresses T1, FIR1+2 WT (FIR RRM1+2) (human, UniProt Q9UHX1-2 101-299, R106G;C112S;C238A). Kind of series: fluorescence anisotropy.
Series [5] has as its target T1, FIR1+2 WT (FIR RRM1+2). The series can be described thus: X-ray crystallography.

These results are taken from article PMC2206118.

T1 sequence (Q9UHX1 118-316 R123G/C129S/C255A): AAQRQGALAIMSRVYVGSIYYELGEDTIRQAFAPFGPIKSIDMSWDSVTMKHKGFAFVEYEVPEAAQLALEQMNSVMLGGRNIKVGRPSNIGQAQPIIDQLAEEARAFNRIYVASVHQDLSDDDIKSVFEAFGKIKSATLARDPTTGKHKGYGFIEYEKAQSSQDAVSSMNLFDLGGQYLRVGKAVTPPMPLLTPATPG
FIR1+2 F157L, sequence (Q9UHX1 118-316 R123G/C129S/F174L/C255A): as the sequence (Q9UHX1 118-316 R123G/C129S/C255A) above, with F57L counted along it
FIR1+2 Y115L, sequence (Q9UHX1 118-316 R123G/C129S/Y132L/C255A): as the sequence (Q9UHX1 118-316 R123G/C129S/C255A) above, with Y15L counted along it
FIR1+2 F254L, sequence (Q9UHX1 118-316 R123G/C129S/C255A/F271L): as the sequence (Q9UHX1 118-316 R123G/C129S/C255A) above, with F154L counted along it

B1: H27 (FUSE), fluorescein (ssDNA)
DNA: CCTCGGGATTTTTTATTTTGTGTTATT
B1: the Kd (as a rule, a measure of binding affinity in units of concentration) in series [1] is 0.17 ± 0.13 µM; in series [2] it was 140 ± 85 µM; in series [3], 81 ± 31 µM; in series [4] it was 2.3 ± 1.8 µM.

B2: H25 (FUSE) (ssDNA)
DNA: TCGGGATTTTTTATTTTGTGTTATT
As for B2, the binding result in series [5] is “binds”.
